Target: T1, HIV-1 Rev protein (mobility shift assay, bound to stem-loop IIB RRE RNA) (HIV-1, strain  for this …, UniProt P04618)
T1 construct: also called IIB associated Rev
Assay: native gel or EMSA
Conditions: both partners purified

T1 sequence (P04618 whole entry): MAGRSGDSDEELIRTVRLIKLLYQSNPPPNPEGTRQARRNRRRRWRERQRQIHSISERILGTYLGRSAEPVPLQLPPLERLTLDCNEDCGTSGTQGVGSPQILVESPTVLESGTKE

B1: Nb190, wild type, purified from E. coli (VHH)
VHH: QVQLQESGGGLVQAGGSLRLSCAASGSIFSINTMGWYRQAPGKQRELVAFATSGGSTNYPDSVKGRFTISRDNVKNTVYLQMNSLKPEDTAVYYCNIDGFLGSLYKDYWSQGTQVTVSS
  binding result: binds
